Measured values as given in US20240034774A1 (Gilead, published 2024).
Numbering of substitutions follows the chain as printed.

B1: 1.13.15-1 (antibody, human IgG1, kappa)
heavy: QVQLLQSGAAVTKPGASVRVSCEASGYNIRDYFMHWVRQAPGQGLQWVGWINPKTGQPNNPRQFQGRVSLTRHASWDFDTFSFYMDLKALRSDDTAVYFCARQRSDYWDFDVWGSGTQVTVSSASTKGPSVFPLAPSSKSTSGGTAALGCLVKDYFPEPVTVSWNSGALTSGVHTFPAVLQSSGLYSLSSVVTVPSSSLGTQTYICNVNHKPSNTKVDKKVEPKSCDKTHTCPPCPAPELLAGPDVFLFPPKPKDTLMISRTPEVTCVVVDVSHEDPEVKFNWYVDGVEVHNAKTKPREEQYNSTYRVVSVLTVLHQDWLNGKEYKCKVSNKALPLPEEKTISKAKGQPREPQVYTLPPSREEMTKNQVSLTCLVKGFYPSDIAVEWESNGQPENNYKTTPPVLDSDGSFFLYSKLTVDKSRWQQGNVFSCSVLHEALHSHYTQKSLSLSPGK
light: DIQMTQSPSSLSASVGDTVTITCQANGYLNWYQQRRGKAPKLLIYDGSKLERGVPSRFSGRRWGQEYNLTINNLQPEDIATYFCQVYEFFVPGTRLDLKRTVAAPSVFIFPPSDEQLKSGTASVVCLLNNFYPREAKVQWKVDNALQSGNSQESVTEQDSKDSTYSLSSTLTLSKADYEKHKVYACEVTHQGLSSPVTKSFNRGEC
B2: 1.15.1-1 (antibody, human IgG1, kappa)
heavy: B1 heavy with M34I, V37W, T55W
light: B1 light with F90V
B3: 1.18.1-1 (antibody, human IgG1, kappa)
heavy: B1 heavy with M34I, V37W, T55H
light: B1 light with F90V
B4: 1.31.1-1 (antibody, human IgG1, kappa)
heavy: B1 heavy with L5V, A10E, M34I, V37W, V97T
light: B1 light with F90V
B5: 1.31.31-1 (antibody, human IgG1, kappa)
heavy: B1 heavy with L5V, A10E, M34I, V37W, V97T
light: B1 light with N68T, N72S, N73S, F90V, R95N
B6: 1.13.17-1 (antibody, human IgG1, kappa, V domains shown)
VH: QVQLLQSGAAVTKPGASVRVSCEASGYNIRDYFMHWVRQAPGQGLQWVGWINPKTGQPNNPRQFQGRVSLTRHASWDFDTFSFYMDLKALRSDDTAVYFCARQRSDYWDFDVWGSGTQVTVSS
VL: DIQMTQSPSSLSASVGDTVTITCQANGYLNWYQQRRGKAPKLLIYDGSKLERGVPSRFSGRRWGQEYNLTINNLQPEDIATYFCQVYEFFGPGTRLDLKR
B7: 1.28.1-1 (antibody, human IgG1, kappa)
heavy: B1 heavy with M34I, V37W, V97T, S105T
light: B1 light with F90V
B8: 1.32.31-1 (antibody, human IgG1, kappa)
heavy: B1 heavy with L5V, A10E, M34I, V37W, S105T
light: B1 light with N68T, N72S, N73S, F90V, R95N
B9: 1.21.1-1 (antibody, human IgG1, kappa)
heavy: B1 heavy with M34I, V37W, H73D
light: B1 light with F90V
B10: 1.24.1-1 (antibody, human IgG1, kappa)
heavy: B1 heavy with M34I, V37W, Y84S
light: B1 light with F90V
B11: 1.19.1-1 (antibody, human IgG1, kappa)
heavy: B1 heavy with M34I, V37W, S69T
light: B1 light with F90V
B12: 1.29.1-1 (antibody, human IgG1, kappa)
heavy: B1 heavy with M34I, V37W, S115Q
light: B1 light with F90V
B13: 1.17.1-1 (antibody, human IgG1, kappa)
heavy: B1 heavy with M34I, V37W, T55A
light: B1 light with F90V
B14: 1.32.33-1 (antibody, human IgG1, kappa)
heavy: B1 heavy with L5V, A10E, M34I, V37W, S105T
light: B1 light with K49N, N68T, N72S, N73S, F90V, R95N, L98I
B15: 1.31.32-1 (antibody, human IgG1, kappa)
heavy: B1 heavy with L5V, A10E, M34I, V37W, V97T
light: B1 light with N68T, N72S, N73S, F90V, V91T
B16: 1.27.1-1 (antibody, human IgG1, kappa)
heavy: B1 heavy with M34I, V37W, S105T
light: B1 light with F90V
B17: 1.31.34-1 (antibody, human IgG1, kappa)
heavy: B1 heavy with L5V, A10E, M34I, V37W, V97T
light: B1 light with K49N, N68T, N72S, N73S, F90V, V91T, L98I
B18: 1.20.1-1 (antibody, human IgG1, kappa)
heavy: B1 heavy with M34I, V37W, S69T, L70M
light: B1 light with F90V
B19: 1.14.17-1 (antibody, human IgG1, kappa, V domains shown)
VH: B6 VH with F83A
VL: B6 VL
B20: 1.32.34-1 (antibody, human IgG1, kappa)
heavy: B1 heavy with L5V, A10E, M34I, V37W, S105T
light: B1 light with K49N, N68T, N72S, N73S, F90V, V91T, L98I
B21: 1.16.1-1 (antibody, human IgG1, kappa)
heavy: B1 heavy with M34I, V37W, T55G
light: B1 light with F90V
B22: 1.32.32-1 (antibody, human IgG1, kappa)
heavy: B1 heavy with L5V, A10E, M34I, V37W, S105T
light: B1 light with N68T, N72S, N73S, F90V, V91T
B23: 1.26.1-1 (antibody, human IgG1, kappa)
heavy: B1 heavy with M34I, V37W, V97T
light: B1 light with F90V
B24: 1.31.33-1 (antibody, human IgG1, kappa)
heavy: B1 heavy with L5V, A10E, M34I, V37W, V97T
light: B1 light with K49N, N68T, N72S, N73S, F90V, R95N, L98I
B25: 1.32.1-1 (antibody, human IgG1, kappa)
heavy: B1 heavy with L5V, A10E, M34I, V37W, S105T
light: B1 light with F90V
B26: 1.30.1-1 (antibody, human IgG1, kappa)
heavy: B1 heavy with M34I, V37W, Q118M
light: B1 light with F90V
B27: 1.25.1-1 (antibody, human IgG1, kappa)
heavy: B1 heavy with M34I, V37W, K88S, A89R
light: B1 light with F90V

Columns and labels:
[1] = target: gp120 SHIV SF162 P3 (SHIV SF162 P3); experiment: single-point ELISA at EC50 conc. of A-1
[2] = target: gp120 CAAN (HIV (CAAN)); experiment: single-point ELISA at EC50 conc. of A-1
[3] = target: gp120 Bal (HIV (Bal)); experiment: single-point ELISA at EC50 conc. of A-1
[4] = target: BSA (UniProt P02769 25-607); experiment: single-point ELISA, BSA control

| Binder | ELISA A450 [1] [A450] | ELISA A450 [2] [A450] | ELISA A450 [3] [A450] | ELISA A450 [4] [A450] |
| --- | --- | --- | --- | --- |
| B1 | 0.52 | 0.6 | 0.7 | 0.06 |
| B2 | 1.24 | 1.38 | 0.87 | 0.06 |
| B3 | 1.36 | 1.18 | 0.97 | 0.07 |
| B4 | 0.87 | 0.92 | 0.82 | 0.06 |
| B5 | 0.97 | 1.02 | 0.98 | 0.07 |
| B6 | 0.69 | 0.78 | 1.02 | 0.06 |
| B7 | 0.99 | 0.99 | 1.05 | 0.06 |
| B8 | 0.66 | 0.9 | 0.95 | 0.07 |
| B9 | 0.82 | 0.77 | 0.87 | 0.07 |
| B10 | 1.09 | 0.9 | 0.98 | 0.06 |
| B11 | 0.96 | 0.93 | 0.85 | 0.06 |
| B12 | 0.98 | 1.08 | 1.03 | 0.06 |
| B13 | 0.31 | 0.7 | 0.84 | 0.06 |
| B14 | 0.71 | 0.68 | 0.93 | 0.06 |
| B15 | 0.91 | 1.04 | 0.98 | 0.06 |
| B16 | 0.86 | 0.86 | 0.86 | 0.07 |
| B17 | 0.82 | 0.86 | 0.76 | 0.06 |
| B18 | 0.91 | 0.8 | 0.89 | 0.06 |
| B19 | 0.24 | 0.43 | 0.89 | 0.1 |
| B20 | 0.71 | 0.86 | 0.81 | 0.06 |
| B21 | 0.9 | 0.87 | 0.92 | 0.07 |
| B22 | 0.7 | 0.9 | 0.89 | 0.08 |
| B23 | 0.94 | 1 | 0.81 | 0.06 |
| B24 | 0.74 | 0.86 | 0.89 | 0.06 |
| B25 | 0.91 | 0.83 | 0.93 | 0.06 |
| B26 | 1.03 | 1.05 | 0.81 | 0.06 |
| B27 | 1.03 | 1.16 | 1.07 | 0.06 |
